Starred links: 1 amine or outer side, 2 acyl side, 3 side chain; linkers in the order of their positions; H or OH if unused. Non-standard residues stand in square brackets, D forms with d. Groups on a side chain read outwards from the residue. No end group written: not given here. *: point of attachment. γGlu = O=C(O)[C@H](CCC(=O)[*:2])N[*:1]; Palmitoyl = CCCCCCCCCCCCCCCC(=O)*; Aib = CC(C)(N)C(=O)O
What was measured:
Assay in all cases: cell-based or functional assay
[1] = target: human corticotropin-releasing factor 2α (CRF2α receptor) (human), Q13324
Chain of human corticotropin-releasing factor 2α (CRF2α receptor) (human), Q13324 (Q13324 20-411): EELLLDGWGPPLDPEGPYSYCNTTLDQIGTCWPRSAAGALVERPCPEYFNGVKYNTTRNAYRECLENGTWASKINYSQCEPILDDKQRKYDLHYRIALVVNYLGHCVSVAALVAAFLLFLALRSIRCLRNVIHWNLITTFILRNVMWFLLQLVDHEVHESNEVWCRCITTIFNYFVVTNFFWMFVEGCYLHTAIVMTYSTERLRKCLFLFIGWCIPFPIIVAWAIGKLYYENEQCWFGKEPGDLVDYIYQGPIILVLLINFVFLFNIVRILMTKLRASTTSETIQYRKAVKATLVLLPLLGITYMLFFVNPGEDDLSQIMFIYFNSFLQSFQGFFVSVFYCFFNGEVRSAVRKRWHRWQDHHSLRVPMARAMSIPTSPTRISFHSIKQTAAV

[2] = target: human corticotropin-releasing factor 2α receptor (CRF2α receptor) (human), Q13324
Chain of human corticotropin-releasing factor 2α receptor (CRF2α receptor) (human), Q13324 (Q13324 20-411): as above

[3] = target: T1, CRF1R receptor (anti-target) (UniProt P34998 24-415, limits assumed)
T1 sequence (looked up): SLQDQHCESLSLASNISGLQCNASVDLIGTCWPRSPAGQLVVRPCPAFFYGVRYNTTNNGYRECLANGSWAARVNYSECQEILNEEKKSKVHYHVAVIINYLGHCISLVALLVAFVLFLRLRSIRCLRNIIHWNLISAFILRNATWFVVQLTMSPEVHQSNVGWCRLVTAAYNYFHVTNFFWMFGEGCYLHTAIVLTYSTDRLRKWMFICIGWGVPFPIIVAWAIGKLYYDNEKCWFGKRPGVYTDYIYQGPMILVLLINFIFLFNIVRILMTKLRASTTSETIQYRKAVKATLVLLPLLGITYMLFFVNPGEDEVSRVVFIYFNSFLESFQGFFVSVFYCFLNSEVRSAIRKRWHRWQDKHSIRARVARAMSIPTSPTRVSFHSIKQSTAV

B1: peptide of SEQ ID NO: 207 (peptide)
peptide: IVLSLD[dV]PIGLK([γGlu-Palmitoyl])QILLKQERQKK[Aib]REQAETNKRILERV-NH2
modifications: N-terminus assumed
SMILES: CCCCCCCCCCCCCCCC(=O)N[C@@H](CCC(=O)NCCCC[C@H](NC(=O)[C@H](CC(C)C)NC(=O)CNC(=O)[C@@H](NC(=O)[C@@H]1CCCN1C(=O)[C@H](NC(=O)[C@H](CC(=O)O)NC(=O)[C@H](CC(C)C)NC(=O)[C@H](CO)NC(=O)[C@H](CC(C)C)NC(=O)[C@@H](NC(=O)[C@@H](N)[C@@H](C)CC)C(C)C)C(C)C)[C@@H](C)CC)C(=O)N[C@@H](CCC(N)=O)C(=O)N[C@H](C(=O)N[C@@H](CC(C)C)C(=O)N[C@@H](CC(C)C)C(=O)N[C@@H](CCCCN)C(=O)N[C@@H](CCC(N)=O)C(=O)N[C@@H](CCC(=O)O)C(=O)N[C@@H](CCCNC(=N)N)C(=O)N[C@@H](CCC(N)=O)C(=O)N[C@@H](CCCCN)C(=O)N[C@@H](CCCCN)C(=O)NC(C)(C)C(=O)N[C@@H](CCCNC(=N)N)C(=O)N[C@@H](CCC(=O)O)C(=O)N[C@@H](CCC(N)=O)C(=O)N[C@@H](C)C(=O)N[C@@H](CCC(=O)O)C(=O)N[C@H](C(=O)N[C@@H](CC(N)=O)C(=O)N[C@@H](CCCCN)C(=O)N[C@@H](CCCNC(=N)N)C(=O)N[C@H](C(=O)N[C@@H](CC(C)C)C(=O)N[C@@H](CCC(=O)O)C(=O)N[C@@H](CCCNC(=N)N)C(=O)N[C@H](C(N)=O)C(C)C)[C@@H](C)CC)[C@@H](C)O)[C@@H](C)CC)C(=O)O
[1]
  EC50 [nM], 0% HSA (cAMP, HTRF): 0.68 nM
[2]
  CRF2 EC50 (cAMP, HTRF): 0.68 nM
[3]
  CRF1/CRF2 ratio (of EC50): 6
  CRF1 EC50 (cAMP, HTRF): 4.18 nM

B2: peptide of SEQ ID NO: 208 (peptide)
peptide: IVLSLD[dV]PIKLK([γGlu-Palmitoyl])QILLKQERQK[Aib]QRQQAEKNKQILAQV-NH2
modifications: N-terminus assumed
SMILES: CCCCCCCCCCCCCCCC(=O)N[C@@H](CCC(=O)NCCCC[C@H](NC(=O)[C@H](CC(C)C)NC(=O)[C@H](CCCCN)NC(=O)[C@@H](NC(=O)[C@@H]1CCCN1C(=O)[C@H](NC(=O)[C@H](CC(=O)O)NC(=O)[C@H](CC(C)C)NC(=O)[C@H](CO)NC(=O)[C@H](CC(C)C)NC(=O)[C@@H](NC(=O)[C@@H](N)[C@@H](C)CC)C(C)C)C(C)C)[C@@H](C)CC)C(=O)N[C@@H](CCC(N)=O)C(=O)N[C@H](C(=O)N[C@@H](CC(C)C)C(=O)N[C@@H](CC(C)C)C(=O)N[C@@H](CCCCN)C(=O)N[C@@H](CCC(N)=O)C(=O)N[C@@H](CCC(=O)O)C(=O)N[C@@H](CCCNC(=N)N)C(=O)N[C@@H](CCC(N)=O)C(=O)N[C@@H](CCCCN)C(=O)NC(C)(C)C(=O)N[C@@H](CCC(N)=O)C(=O)N[C@@H](CCCNC(=N)N)C(=O)N[C@@H](CCC(N)=O)C(=O)N[C@@H](CCC(N)=O)C(=O)N[C@@H](C)C(=O)N[C@@H](CCC(=O)O)C(=O)N[C@@H](CCCCN)C(=O)N[C@@H](CC(N)=O)C(=O)N[C@@H](CCCCN)C(=O)N[C@@H](CCC(N)=O)C(=O)N[C@H](C(=O)N[C@@H](CC(C)C)C(=O)N[C@@H](C)C(=O)N[C@@H](CCC(N)=O)C(=O)N[C@H](C(N)=O)C(C)C)[C@@H](C)CC)[C@@H](C)CC)C(=O)O
[1]
  EC50 [nM], 0% HSA (cAMP, HTRF): 0.9 nM
[2]
  CRF2 EC50 (cAMP, HTRF): 0.9 nM
[3]
  CRF1/CRF2 ratio (of EC50): 2
  CRF1 EC50 (cAMP, HTRF): 1.43 nM

B3: peptide of SEQ ID NO: 209 (peptide)
peptide: IVLSLD[dV]PIKLK([γGlu-Palmitoyl])QILLKQERQKK[Aib]RQKAEKNKQILAQV-NH2
modifications: N-terminus assumed
SMILES: CCCCCCCCCCCCCCCC(=O)N[C@@H](CCC(=O)NCCCC[C@H](NC(=O)[C@H](CC(C)C)NC(=O)[C@H](CCCCN)NC(=O)[C@@H](NC(=O)[C@@H]1CCCN1C(=O)[C@H](NC(=O)[C@H](CC(=O)O)NC(=O)[C@H](CC(C)C)NC(=O)[C@H](CO)NC(=O)[C@H](CC(C)C)NC(=O)[C@@H](NC(=O)[C@@H](N)[C@@H](C)CC)C(C)C)C(C)C)[C@@H](C)CC)C(=O)N[C@@H](CCC(N)=O)C(=O)N[C@H](C(=O)N[C@@H](CC(C)C)C(=O)N[C@@H](CC(C)C)C(=O)N[C@@H](CCCCN)C(=O)N[C@@H](CCC(N)=O)C(=O)N[C@@H](CCC(=O)O)C(=O)N[C@@H](CCCNC(=N)N)C(=O)N[C@@H](CCC(N)=O)C(=O)N[C@@H](CCCCN)C(=O)N[C@@H](CCCCN)C(=O)NC(C)(C)C(=O)N[C@@H](CCCNC(=N)N)C(=O)N[C@@H](CCC(N)=O)C(=O)N[C@@H](CCCCN)C(=O)N[C@@H](C)C(=O)N[C@@H](CCC(=O)O)C(=O)N[C@@H](CCCCN)C(=O)N[C@@H](CC(N)=O)C(=O)N[C@@H](CCCCN)C(=O)N[C@@H](CCC(N)=O)C(=O)N[C@H](C(=O)N[C@@H](CC(C)C)C(=O)N[C@@H](C)C(=O)N[C@@H](CCC(N)=O)C(=O)N[C@H](C(N)=O)C(C)C)[C@@H](C)CC)[C@@H](C)CC)C(=O)O
[1]
  EC50 [nM], 0% HSA (cAMP, HTRF): 8.62 nM
[2]
  CRF2 EC50 (cAMP, HTRF): 8.62 nM
[3]
  CRF1/CRF2 ratio (of EC50): 3
  CRF1 EC50 (cAMP, HTRF): 21.7 nM

B4: peptide of SEQ ID NO: 212 (peptide)
peptide: IVLSLD[dV]PIKLK([γGlu-Palmitoyl])QILLKQERQKKQREQAEKNKQILEQV-NH2
modifications: N-terminus assumed
SMILES: CCCCCCCCCCCCCCCC(=O)N[C@@H](CCC(=O)NCCCC[C@H](NC(=O)[C@H](CC(C)C)NC(=O)[C@H](CCCCN)NC(=O)[C@@H](NC(=O)[C@@H]1CCCN1C(=O)[C@H](NC(=O)[C@H](CC(=O)O)NC(=O)[C@H](CC(C)C)NC(=O)[C@H](CO)NC(=O)[C@H](CC(C)C)NC(=O)[C@@H](NC(=O)[C@@H](N)[C@@H](C)CC)C(C)C)C(C)C)[C@@H](C)CC)C(=O)N[C@@H](CCC(N)=O)C(=O)N[C@H](C(=O)N[C@@H](CC(C)C)C(=O)N[C@@H](CC(C)C)C(=O)N[C@@H](CCCCN)C(=O)N[C@@H](CCC(N)=O)C(=O)N[C@@H](CCC(=O)O)C(=O)N[C@@H](CCCNC(=N)N)C(=O)N[C@@H](CCC(N)=O)C(=O)N[C@@H](CCCCN)C(=O)N[C@@H](CCCCN)C(=O)N[C@@H](CCC(N)=O)C(=O)N[C@@H](CCCNC(=N)N)C(=O)N[C@@H](CCC(=O)O)C(=O)N[C@@H](CCC(N)=O)C(=O)N[C@@H](C)C(=O)N[C@@H](CCC(=O)O)C(=O)N[C@@H](CCCCN)C(=O)N[C@@H](CC(N)=O)C(=O)N[C@@H](CCCCN)C(=O)N[C@@H](CCC(N)=O)C(=O)N[C@H](C(=O)N[C@@H](CC(C)C)C(=O)N[C@@H](CCC(=O)O)C(=O)N[C@@H](CCC(N)=O)C(=O)N[C@H](C(N)=O)C(C)C)[C@@H](C)CC)[C@@H](C)CC)C(=O)O
[1]
  EC50 [nM], 0% HSA (cAMP, HTRF): 1.23 nM
[2]
  CRF2 EC50 (cAMP, HTRF): 1.23 nM
[3]
  CRF1/CRF2 ratio (of EC50): 1
  CRF1 EC50 (cAMP, HTRF): 0.9 nM

B5: peptide of SEQ ID NO: 214 (peptide)
peptide: IVLSLD[dV]PIKLK([γGlu-Palmitoyl])QILLKQERQKKQRQQAEKNKQILAQV-NH2
modifications: N-terminus assumed
SMILES: CCCCCCCCCCCCCCCC(=O)N[C@@H](CCC(=O)NCCCC[C@H](NC(=O)[C@H](CC(C)C)NC(=O)[C@H](CCCCN)NC(=O)[C@@H](NC(=O)[C@@H]1CCCN1C(=O)[C@H](NC(=O)[C@H](CC(=O)O)NC(=O)[C@H](CC(C)C)NC(=O)[C@H](CO)NC(=O)[C@H](CC(C)C)NC(=O)[C@@H](NC(=O)[C@@H](N)[C@@H](C)CC)C(C)C)C(C)C)[C@@H](C)CC)C(=O)N[C@@H](CCC(N)=O)C(=O)N[C@H](C(=O)N[C@@H](CC(C)C)C(=O)N[C@@H](CC(C)C)C(=O)N[C@@H](CCCCN)C(=O)N[C@@H](CCC(N)=O)C(=O)N[C@@H](CCC(=O)O)C(=O)N[C@@H](CCCNC(=N)N)C(=O)N[C@@H](CCC(N)=O)C(=O)N[C@@H](CCCCN)C(=O)N[C@@H](CCCCN)C(=O)N[C@@H](CCC(N)=O)C(=O)N[C@@H](CCCNC(=N)N)C(=O)N[C@@H](CCC(N)=O)C(=O)N[C@@H](CCC(N)=O)C(=O)N[C@@H](C)C(=O)N[C@@H](CCC(=O)O)C(=O)N[C@@H](CCCCN)C(=O)N[C@@H](CC(N)=O)C(=O)N[C@@H](CCCCN)C(=O)N[C@@H](CCC(N)=O)C(=O)N[C@H](C(=O)N[C@@H](CC(C)C)C(=O)N[C@@H](C)C(=O)N[C@@H](CCC(N)=O)C(=O)N[C@H](C(N)=O)C(C)C)[C@@H](C)CC)[C@@H](C)CC)C(=O)O
[1]
  EC50 [nM], 0% HSA (cAMP, HTRF): 4.15 nM
[2]
  CRF2 EC50 (cAMP, HTRF): 4.15 nM
[3]
  CRF1/CRF2 ratio (of EC50): 1
  CRF1 EC50 (cAMP, HTRF): 4.27 nM

B6: peptide of SEQ ID NO: 218 (peptide)
peptide: IVLSLD[dV]PIGLK([γGlu-Palmitoyl])QILLKQERQKK[Aib]REQAEKNKRILERV-NH2
modifications: N-terminus assumed
SMILES: CCCCCCCCCCCCCCCC(=O)N[C@@H](CCC(=O)NCCCC[C@H](NC(=O)[C@H](CC(C)C)NC(=O)CNC(=O)[C@@H](NC(=O)[C@@H]1CCCN1C(=O)[C@H](NC(=O)[C@H](CC(=O)O)NC(=O)[C@H](CC(C)C)NC(=O)[C@H](CO)NC(=O)[C@H](CC(C)C)NC(=O)[C@@H](NC(=O)[C@@H](N)[C@@H](C)CC)C(C)C)C(C)C)[C@@H](C)CC)C(=O)N[C@@H](CCC(N)=O)C(=O)N[C@H](C(=O)N[C@@H](CC(C)C)C(=O)N[C@@H](CC(C)C)C(=O)N[C@@H](CCCCN)C(=O)N[C@@H](CCC(N)=O)C(=O)N[C@@H](CCC(=O)O)C(=O)N[C@@H](CCCNC(=N)N)C(=O)N[C@@H](CCC(N)=O)C(=O)N[C@@H](CCCCN)C(=O)N[C@@H](CCCCN)C(=O)NC(C)(C)C(=O)N[C@@H](CCCNC(=N)N)C(=O)N[C@@H](CCC(=O)O)C(=O)N[C@@H](CCC(N)=O)C(=O)N[C@@H](C)C(=O)N[C@@H](CCC(=O)O)C(=O)N[C@@H](CCCCN)C(=O)N[C@@H](CC(N)=O)C(=O)N[C@@H](CCCCN)C(=O)N[C@@H](CCCNC(=N)N)C(=O)N[C@H](C(=O)N[C@@H](CC(C)C)C(=O)N[C@@H](CCC(=O)O)C(=O)N[C@@H](CCCNC(=N)N)C(=O)N[C@H](C(N)=O)C(C)C)[C@@H](C)CC)[C@@H](C)CC)C(=O)O
[1]
  EC50 [nM], 0% HSA (cAMP, HTRF): 1.58 nM
[2]
  CRF2 EC50 (cAMP, HTRF): 1.58 nM
[3]
  CRF1/CRF2 ratio (of EC50): 4
  CRF1 EC50 (cAMP, HTRF): 6.97 nM

From patent publication US12679878B2, “CRF2 receptor agonists and their use in therapy” (SANOFI, priority 2020, dated 2026)
